Among the data in article PMC9663306 are localisation_or_trafficking values, retold here.

A short description of this data set: flow cytometry of surface IL-17RC, ST2 cells. Particulars: glycan lost; control: SF-IL-17RCWT.

B1: IL-17RC: SF-IL-17RCMutE (protein)
parent chain: MPVSWFLLSLALGRNPVVVSLERLMEPQDTARCSLGLSCHLWDGDVLCLPGSLQSAPGPVLVPTRLQTELVLRCPQKTDCALCVRVVVHLAVHGHWAEPEEAGKSDSELQESRNASLQAQVVLSFQAYPIARCALLEVQVPADLVQPGQSVGSAVFDCFEASLGAEVQIWSYTKPRYQKELNLTQQLPDCRGLEVRDSIQSCWVLPWLNVSTDGDNVLLTLDVSEEQDFSFLLYLRPVPDALKSLWYKNLTGPQNITLNHTDLVPCLCIQVWSLEPDSERVEFCPFREDPGAHRNLWHIARLRVLSPGVWQLDAPCCLPGKVTLCWQAPDQSPCQPLVPPVPQKNATVNEPQDFQLVAGHPNLCVQVSTWEKVQLQACLWADSLGPFKDDMLLVEMKTGLNNTSVCALEPSGCTPLPSMASTRAARLGEELLQDFRSHQCMQLWNDDNMGSLWACPMDKYIHRRWVLVWLACLLLAAALFFFLLLKKDRRKAARGSRTALLLHSADGAGYERLVGALASALSQMPLRVAVDLWSRRELSAHGALAWFHHQRRRILQEGGVVILLFSPAAVAQCQQWLQLQTVEPGPHDALAAWLSCVLPDFLQGRATGRYVGVYFDGLLHPDSVPSPFRVAPLFSLPSQLPAFLDALQGGCSTSAGRPADRVERVTQALRSALDSCTSSSEAPGCCEEWDLGPCTTLE
Take B1: the localisation_or_trafficking result was “decreases”.
